This note sets out measurements from the FLAb antibody collection (doi:10.7554/elife.23156).

What is called Kd is the free concentration of one partner at which half of the binding sites on the other are occupied at equilibrium, for simple one-to-one binding.

The labels stand for the following.
B1: scFv; the commonest letter at each place (parent)
chain 1: EVKLDETGGGLVQPGRPMKLSCVASGFTFSDYWMNWVRQSPEKGLEWVAQIRNKPYNYETYYSDSVKGRFTISRDDSKSSVYLQMNNLRVEDMGIYYCTGSYYGMDYWGQGTSVTVS
chain 2: DVVMTQTPLSLPVSLGDQASISCRSSQSLVHSNGNTYLRWYLQKPGQSPKVLIYKVSNRFSGVPDRFSGSGSGTDFTLKISRVEAEDLGVYFCSQSTHVPWTFGGGTKLEIK

Variants of B1 are the subject of the data set “fluorescein”. Put plainly: Kd (Tite-Seq). The note with it: with fluorescein; format: scFv 4-4-20, heavy + light.
The variants in data set [1] derive from B1. Put plainly: yeast surface expression (ratio to wild type); higher = more expressed. The note with it: format: scFv 4-4-20, heavy + light.

For chain 1 D106V W108N, the dissociation constant Kd in the data set with fluorescein was no less than 10 µM. Moreover, in data set [1], the yeast surface expression was 0.371.

For the variant chain 1 D106F Y107D, the Kd with fluorescein was no less than 10 µM. Also, the yeast surface expression in data set [1] was 0.296.

Turning to chain 1 D106F Y107G, the Kd with fluorescein was no less than 10 µM. The yeast surface expression in data set [1] stood at 0.238.

Regarding chain 1 D106W G109D, in the data set with fluorescein, the Kd is no less than 10 µM. The yeast surface expression in data set [1] turned out to be 0.186.

chain 1 D106W G109K: the Kd with fluorescein is no less than 10 µM. In data set [1], the yeast surface expression worked out at 0.167.

In the case of chain 1 D106W G109V, the Kd in the data set with fluorescein is no less than 10 µM. For the same variant, the yeast surface expression in data set [1] is 0.0997.

With chain 1 D106W G109A, the Kd in the data set with fluorescein is no less than 10 µM. Further, the yeast surface expression in data set [1] is 0.168.

On to chain 1 D106A W108M, for which the Kd with fluorescein is no less than 10 µM. In data set [1], the yeast surface expression was 0.713.

Regarding chain 1 D106A W108V, in the data set with fluorescein, the Kd is no less than 10 µM. The yeast surface expression in data set [1] is 0.529.

Consider chain 1 D31V M34R, for which the Kd in the data set with fluorescein was found to be 0.195 µM. Further, the yeast surface expression in data set [1] came to 0.17.

chain 1 D31V M34C: the Kd in the data set with fluorescein is no less than 10 µM. Moreover, the yeast surface expression in data set [1] was 0.411.

Regarding chain 1 D31V M34E, in the data set with fluorescein, the equilibrium dissociation constant (Kd) worked out at 0.676 µM. Also, the yeast surface expression in data set [1] worked out at 2.76.

For chain 1 D31G V37N, in the data set with fluorescein, the equilibrium dissociation constant (Kd) was 0.00785 µM. Further, the yeast surface expression in data set [1] is 0.512.

With chain 1 D106M Y107C, in the data set with fluorescein, the Kd is no less than 10 µM. In addition, the yeast surface expression in data set [1] is 0.228.

For the variant chain 1 D106H W108I, the Kd with fluorescein is no less than 10 µM. Further, the yeast surface expression in data set [1] is 0.67.

For the variant chain 1 D31N N35S V37A, in the data set with fluorescein, the Kd is no less than 10 µM. In addition, in data set [1], the yeast surface expression is 0.656.

On to chain 1 D106P W108M, for which the Kd with fluorescein was no less than 10 µM. In data set [1], the yeast surface expression amounted to 0.714.

On to chain 1 D106P W108K, for which, in the data set with fluorescein, the Kd is no less than 10 µM. In addition, in data set [1], the yeast surface expression was 0.407.

Regarding chain 1 D106K G109L, the Kd with fluorescein is no less than 10 µM. Moreover, in data set [1], the yeast surface expression was 0.324.

With chain 1 D106T W108Q, the Kd with fluorescein was no less than 10 µM. Moreover, in data set [1], the yeast surface expression is 0.5.

On to chain 1 D31V W36G, for which, in the data set with fluorescein, the Kd was no less than 10 µM. The yeast surface expression in data set [1] worked out at 2.19.

With chain 1 D31M Y32N, the Kd in the data set with fluorescein is no less than 10 µM. Moreover, the yeast surface expression in data set [1] was determined as 0.536.

Turning to chain 1 D31M Y32S, the Kd with fluorescein was no less than 10 µM. Further, in data set [1], the yeast surface expression came out at 0.804.

As for chain 1 D31M Y32V, the Kd with fluorescein was no less than 10 µM. Besides, in data set [1], the yeast surface expression was 0.528.

For the variant chain 1 D31L Y32H N35V, in the data set with fluorescein, the Kd is no less than 10 µM. Also, in data set [1], the yeast surface expression was found to be 0.343.

Turning to chain 1 D31Q N35L, the Kd in the data set with fluorescein was no less than 10 µM. Moreover, the yeast surface expression in data set [1] is 0.418.

As to chain 1 D31L W36H, the dissociation constant Kd with fluorescein is no less than 10 µM. For the same variant, the yeast surface expression in data set [1] is 0.82.

Turning to chain 1 D31K W33I M34N, in the data set with fluorescein, the Kd is no less than 10 µM. In data set [1], the yeast surface expression worked out at 0.395.

Turning to chain 1 D31N V37I, the Kd with fluorescein came to 0.00325 µM. For the same variant, the yeast surface expression in data set [1] was 0.855.

For the variant chain 1 D31N V37H, the Kd with fluorescein is 0.47 µM. Moreover, the yeast surface expression in data set [1] is 0.626.

On to chain 1 D106Q Y107I, for which the Kd in the data set with fluorescein was no less than 10 µM. Also, in data set [1], the yeast surface expression is 0.712.

Consider chain 1 D106E W108I, for which the Kd with fluorescein came out at 0.228 µM. Moreover, the yeast surface expression in data set [1] was 0.866.

Consider chain 1 D31L Y32A, for which the Kd with fluorescein is 0.0944 µM. Further, the yeast surface expression in data set [1] turned out to be 0.73.

Turning to chain 1 D31L Y32N, the dissociation constant (Kd) with fluorescein is no less than 10 µM. The yeast surface expression in data set [1] was found to be 0.847.

As to chain 1 D31L Y32M, the dissociation constant Kd in the data set with fluorescein is no less than 10 µM. The yeast surface expression in data set [1] turned out to be 0.772.

As to chain 1 D31F V37E, in the data set with fluorescein, the Kd is no less than 10 µM. For the same variant, the yeast surface expression in data set [1] is 0.257.

As for chain 1 D31T M34E, the equilibrium dissociation constant (Kd) in the data set with fluorescein was 0.0692 µM. Further, in data set [1], the yeast surface expression came out at 0.635.

Take chain 1 D31T M34Y: the Kd in the data set with fluorescein worked out at 0.0494 µM. Further, the yeast surface expression in data set [1] stood at 0.706.

Regarding chain 1 D106L W108R G109Y, the Kd with fluorescein is no less than 10 µM. In data set [1], the yeast surface expression was determined as 0.0998.

For the variant chain 1 D31R W33S M34P, in the data set with fluorescein, the Kd is no less than 10 µM. The yeast surface expression in data set [1] came out at 0.182.

Regarding chain 1 D106I G109C, in the data set with fluorescein, the Kd is no less than 10 µM. Moreover, the yeast surface expression in data set [1] is 0.203.

Take chain 1 D106G W108E: in the data set with fluorescein, the Kd is no less than 10 µM. Besides, in data set [1], the yeast surface expression stood at 0.575.

As to chain 1 D106C W108H, the Kd with fluorescein was no less than 10 µM. Besides, the yeast surface expression in data set [1] came to 0.583.

For the variant chain 1 D106C W108K, in the data set with fluorescein, the Kd was no less than 10 µM. In addition, the yeast surface expression in data set [1] was found to be 0.314.

Take chain 1 D31P W33S: the Kd with fluorescein is no less than 10 µM. In addition, the yeast surface expression in data set [1] was determined as 0.352.

On to chain 1 D31P W33F, for which, in the data set with fluorescein, the Kd was no less than 10 µM. Besides, the yeast surface expression in data set [1] was determined as 0.78.

On to chain 1 D31E W36Q, for which the dissociation constant Kd with fluorescein is no less than 10 µM. Further, the yeast surface expression in data set [1] was found to be 0.326.

Consider chain 1 D31E W36H, for which the Kd with fluorescein was no less than 10 µM. Besides, in data set [1], the yeast surface expression turned out to be 0.658.

chain 1 D106A G109H: the equilibrium dissociation constant (Kd) with fluorescein is no less than 10 µM. In addition, the yeast surface expression in data set [1] amounted to 0.448.

Regarding chain 1 D106S, the Kd with fluorescein was 0.00279 µM. Besides, the yeast surface expression in data set [1] was 1.16.

With chain 1 D106P, the Kd in the data set with fluorescein is no less than 10 µM. Also, the yeast surface expression in data set [1] was 0.635.

As for chain 1 D106L, the Kd in the data set with fluorescein was no less than 10 µM. In addition, the yeast surface expression in data set [1] worked out at 0.466.

Take chain 1 D106F: the dissociation constant (Kd) with fluorescein is no less than 10 µM. Moreover, in data set [1], the yeast surface expression came out at 0.325.

For chain 1 D106W, the Kd with fluorescein was no less than 10 µM. The yeast surface expression in data set [1] was found to be 0.339.

Take chain 1 D106R: the dissociation constant (Kd) in the data set with fluorescein is no less than 10 µM. In data set [1], the yeast surface expression came out at 0.451.

With chain 1 D106E, the Kd in the data set with fluorescein came out at 0.0221 µM. Further, the yeast surface expression in data set [1] came out at 1.1.

Take chain 1 D106A: the Kd with fluorescein came out at 2.96 µM. The yeast surface expression in data set [1] was determined as 0.694.

On to chain 1 D106K, for which the Kd with fluorescein is no less than 10 µM. The yeast surface expression in data set [1] is 0.415.
